Laboratory results from IntAct's records for PubMed 10887186.

Target: nrl_human NRL (UniProt P54845)
Sequence (P54845 whole entry): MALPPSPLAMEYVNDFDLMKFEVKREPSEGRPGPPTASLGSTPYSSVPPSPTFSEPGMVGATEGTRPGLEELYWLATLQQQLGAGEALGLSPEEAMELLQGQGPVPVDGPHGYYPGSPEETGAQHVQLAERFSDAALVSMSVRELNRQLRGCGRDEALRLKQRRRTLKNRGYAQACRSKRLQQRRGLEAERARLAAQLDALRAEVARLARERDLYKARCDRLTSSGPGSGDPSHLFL

Sequence of Cone-rod homeobox protein (Bos taurus (Bovine)), Q9XSK0 R90W (Q9XSK0 whole entry R90W): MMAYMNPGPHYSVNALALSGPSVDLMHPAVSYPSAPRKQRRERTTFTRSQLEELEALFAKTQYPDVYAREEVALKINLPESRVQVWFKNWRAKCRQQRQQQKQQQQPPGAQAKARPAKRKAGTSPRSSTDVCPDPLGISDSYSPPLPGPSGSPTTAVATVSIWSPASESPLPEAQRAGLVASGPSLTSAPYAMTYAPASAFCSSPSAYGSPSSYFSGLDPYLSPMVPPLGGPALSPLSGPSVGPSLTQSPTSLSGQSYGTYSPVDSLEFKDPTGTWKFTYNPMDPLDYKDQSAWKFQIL
Sequence of Cone-rod homeobox protein (Bos taurus (Bovine)), Q9XSK0 R41W (Q9XSK0 whole entry R41W): as the sequence (Q9XSK0 whole entry R90W) above, with R41W, W90R counted along it

Row | Substance | effect of a mutation on the interaction
1 | Cone-rod homeobox protein (Bos taurus (Bovine)), Q9XSK0 R41W | decreasing interaction
2 | Cone-rod homeobox protein (Bos taurus (Bovine)), Q9XSK0 R90W | decreasing interaction
